Reference: publication PMC6168461, “Molecular architecture and regulation of BCL10-MALT1 filaments” (Nature Communications, 2018)

B1: human BCL10 (full length), GST-tag removed (natural protein, UniProt O95999 1-233, looked up)
chain: MEPTAPSLTEEDLTEVKKDALENLRVYLCEKIIAERHFDHLRAKKILSREDTEEISCRTSSRKRAGKLLDYLQENPKGLDTLVESIRREKTQNFLIQKITDEVLKLRNIKLEHLKGLKCSSCEPFPDGATNNLSRSNSDESNFSEKLRASTVMYHPEGESSTTPFFSTNSSLNLPVLEVGRTENTIFSSTTLPRPGDPGAPPLPPDLQLEEEGTCANSSEMFLPLRSRTVSRQ
notes: BCL10 (B cell lymphoma 10), human, full length; Forms helical filaments together with MALT1 (T29-G722); only residues 10-115 are modelled in the map; also called B cell lymphoma 10; BCL10 wt; not shown: GST, N-terminal, cleaved

What was measured:
[1] = biological target: human BCL10 (full length), GST-tag removed (human) (UniProt O95999); experiment: cryo-EM structure; helical filaments of BCL10 (full length)-MALT1 (T29-G722); complex at 1 mg/ml, PreScission protease overnight at 12 °C, filaments separated by SEC; core map at 4.9 Å, whole assembly at 5.9 Å
[2] = biological target: the molecule itself; experiment: as above

Molecule | stoichiometry N [1] | binding result [2]
human MALT1 isoform B (T29-G722), in the filament sample after PreScission treatment (domain or fragment) | 1 | –
B1 | – | binds
